Data from patent US20180265915A1, “TRANSCRIPTION FACTOR DECOYS” (priority 2008, published 2018).
“Also recorded” adds a separate entry of the source. {P} = phosphate

Key:
[1] = test system: Staphylococcus aureus EMRSA 16; assay: Mouse sepsis model, tissue burden study; type: in vivo
Description: The mouse sepsis study was performed by Euprotec (UK). Mice used in this study, male CD1 mice were supplied by Charles River (Margate UK) and were specific pathogen free (16-18 g at delivery). All mice weighed 22-25 g at the beginning of the experiment.
For the tissue burden study, animals were treated in groups of 8 mice per treatment group, therefore 48 in total for the study. 2×10 ml cultures of Staphylococcus aureus EMRSA 16 were prepared and placed on orbital shaker (220 rpm) overnight at 37° C. The following day, the Staphylococcus aureus EMRSA 16 cultures were removed from shaker, pelleted and washed twice before being resuspended in saline to an OD of 0.132 (1.5×10^8 cfu/ml). This stock solution of Staphylococcus aureus EMRSA 16 was then further diluted 1:1.5 in saline (1×10^8 cfu/ml) i.e. 2.0×10^7 bacteria per mouse. 48 mice were then infected with 0.2 ml of the 1.0×10^8/mL suspension. The number of Staphylococcus aureus EMRSA 16 bacteria per mL in the remainder of the suspensions after inoculation was also counted to confirm infection load. Mice were treated 1, 9 and 17 hours post infection with either compound or vehicle, though vancomycin was only administered after 1h. The treatments were as previously a mixture of TFD/DOTAP/Lysostaphin using a concentration of InM/kg TFD in a 5:1 molar ratio with DOTAP and 63 μg/kg Lysostaphin. After 25 hours post infection all animals were weighed and then euthanized. The kidneys were immediately removed and homogenised in ice cold sterile phosphate buffered saline+0.05% Tween 80. Organ homogenates were quantitatively cultured onto CLED agar and incubated at 37° C. for up to 3 days and colonies counted. The data from the culture burdens was analysed by the Kruskal-Wallis test using Stats Direct.

E. coli = assay: FabB TFD growth assay with cerulenin in LB, polymixin co-transfectant; type: cell-based, Escherichia coli
Description: For example, a FabB decoy which targets the regulation of genes essential for fatty acid synthesis may be tested against suitable strain, e.g. E. coli grown in e.g. Luria-Bertani LB media (1% [w/v] Bacto-tryptone, 0.5% [w/v] Yeast extract, 1% [w/v] NaCl) in the presence of an antibiotic which acts on the process of fatty acid synthesis, e.g. Cerulenin.
The effect of TFDs on the growth of E. coli bacterial cultures was measured as described in Example 4.1 with a few modifications: the media used was LB; the co-transfectant used was 40 nM polymixin, rather than gramicidin; the media was also supplemented with 10 μg/ml Cerulenin (CER). CER is an antibiotic that acts on fatty acid synthesis.

K. pneumoniae = assay: KP_Sig TFD growth assay in vitro; type: cell-based, Klebsiella pneumoniae; conditions: PCR_TFD, transfected using a cell penetrating peptide
Source text: Cells were transfected as described in Example 13, using a cell penetrating peptide. […] The two controls used were: untreated cells (K. pneumoniae) and a control TFD consisting of a scrambled sequence.

S. aureus = assay: Growth of S. aureus transfected by electroporation under conditions of stress; type: cell-based, Staphylococcus aureus; conditions: BHI or LB media with 30 mM KOH, vs mock-electroporation or unrelated sequence
Description: For example, stress response can be induced in a suitable strain e.g. S. aureus by growing in, e.g. LB media under conditions of stress, e.g. alkali conditions. For example LB media containing KOH, e.g. at 30 mM may be used. Untreated bacteria grow well in this media, due to the induction of the stress response by the alkali conditions, whereas those treated with the SA_sigB decoy, targeting the regulation of sigB which is a major part of the regulatory response to stress, grow poorly.
Decoy polynucleotides were transfected into S. aureus by electroporation. Bacterial cells were prepared by standard methods. Briefy, cells were grown to early exponential phase in LB media at 37° C. as defined as reaching an Absorbance of 0.3 at […]. The cells were chilled to 4° C. and harvested by low speed centrifugation and washed three times in a similar volume of sterile, ice-cold 10% (v/v) glycerol. Finally the cells were resuspended in a tenth of their original volume in 10% glycerol. […] 200 μl of cells were aliquoted into wells of a 96 well plate that was incubated at 37° C. with moderate shaking, growth was monitored by measuring absorbance.

EMRSA-16 = assay: WalR_TFD in vitro growth and viable count assays on EMRSA-16; type: cell-based, Staphylococcus aureus; conditions: for effect on growth of EMRSA-16 in vitro: 1 nM TFD, DOTAP, Lysostaphin, BHI
Description: S. aureus EMRSA16 cultures were grown and maintained in BHI media (Becton Dickenson). Frozen stocks were prepared by mixing equal volumes of a culture in early exponential growth (OD of 0.3 at A600) with 50% glycerol and freezing at −80° C.
TFD-DOTAP complexes were formed by mixing 1 ug of TFD with 2 μg of DOTAP (Roche) and incubating at room temperature for 10 min on the bench. The TFD complex was then mixed with inoculated medium supplemented with 10 ng/ml Lysostaphin (Sigma; L9043), aliquoted into 96 well flat-bottomed plates and growth was analysed by culturing at 37° C. with shaking in a BioTek plate reader.
EMRSA-16, an MRSA strain endemic in UK hospitals, was used in the study (Cox, Mallaghan et al. 1995). TFDs were mixed with a commercially available lipid formulation, DOTAP, and mixed with media inoculated with EMRSA-16 and Lysostaphin. Lysostaphin is a lysozyme agent that acts on the walls of S. aureus, use of it in this experiment was to thin the outer peptidoglycan layer of the bacteria and allow the TFD to transfect the cell following fusion of the DOTAP carrier with the exposed inner membrane of the bacterium. […] The bacteria that were not killed by WalR_TFD treatment were sub-cultured in order to determine whether there was any incidence of resistance. The process was repeated a total of four times and both the reduction in viable counts (FIG. 17B) and in vitro growth curves were recorded (FIG. 17C, black squares: bacteria in fourth passage).
In order to determine whether TFDs killed bacteria on contact or needed prolonged exposure to work, EMRSA-16 were transfected with 1 nM WalR_TFD/DOTAP complex and incubated for 30 minutes before being microdiluted into fresh media, without any TFD complexes or Lysostaphin.

EMRSA15 = assay: DB-TFD growth assay on EMRSA15 with Lysostaphin co-treatment; type: cell-based, Staphylococcus aureus; conditions: 10 nM DB-TFD; 0.5 to 2.5 pg/ml Lysostaphin
Description: Growth assays were performed as described for Example 7.1 with the sole difference being that the media was supplemented with between 0.5 and 2.5 pg/ml Lysostaphin instead of Gramicidin. Lysostaphin is a lysozyme-like enzyme that is specific for the walls of S. aureus.

[2] = test system: clinically-isolated MRSA strain MRSA-5; assay: Dumbbell Sig TFD growth assay on a clinically-isolated MRSA strain; type: cell-based, Staphylococcus aureus; conditions: 10 nM TFD, dumbbell configuration
Description: A growth assay was performed as described in Example 5.1 using the Sig TFD in its dumbbell configuration and a clinically-isolated MRSA strain.

[3] = statistical analysis of in vivo results

Molecule: CN[C@H](CC(C)C)C(=O)N[C@H]1C(=O)N[C@@H](CC(N)=O)C(=O)N[C@H]2C(=O)N[C@H]3C(=O)N[C@H](C(=O)N[C@H](C(=O)O)c4cc(O)cc(O)c4-c4cc3ccc4O)[C@H](O)c3ccc(c(Cl)c3)Oc3cc2cc(c3O[C@@H]2O[C@H](CO)[C@@H](O)[C@H](O)[C@H]2O[C@H]2C[C@](C)(N)[C@H](O)[C@H](C)O2)Oc2ccc(cc2Cl)[C@H]1O [Vancomycin, vancomycin, reference compound]
- Kruskal-Wallis all pairwise comparisons (Dwass-Steel-Chritchlow-Fligner) of kidney burden, versus Vehicle [1, 3]: 0.0173

Molecule: C/C=C/C/C=C/CCC(=O)[C@H]1O[C@H]1C(N)=O [cerulenin, reference compound]
- effect of cerulenin on growth of E. coli (E. coli; 10 μg/ml Cerulenin): no noticeable effect on growth
- cerulenin concentration at which it begins to inhibit cell growth (E. coli; in the presence of the control TFD): 20 µg/mL

Molecule: KP_Sig: sigma 54 binding site from the K. pneumoniae glnA promoter, SEQ ID NO: 59, in a PCR_TFD (DNA TGGCACAGATTTCGCT; listed as DNA, chemistry not fully specified; listed as Klebsiella pneumoniae)
- effect on K. pneumoniae cell growth in vitro (K. pneumoniae): prevented cell growth in vitro
- effect on K. pneumoniae cell growth in vitro (K. pneumoniae; listed as KP_Sig TFD): kills K. pneumoniae in vitro

Molecule: LytM TFD: YycG/YycF binding site in LytM promoter, SEQ ID NO: 7 (DNA GCTATTTTGTAATGACAATGTAATGAGTTTAGTAAAAA; transcription factor decoy, made by PCR or oligonucleotide ligation, further chemistry not given here; listed as Staphylococcus aureus)
- growth of S. aureus under conditions of stress (S. aureus): capable of slowing the growth

B1: Scr_TFD: TFD containing a scrambled version of the WalR binding site, SEQ ID NOs: 46 & 47 (nucleic acid, listed as Staphylococcus aureus)
chain 1: CTTGGTTTTTCCAAGGTAATATGACAAGATTGTAAATGACCTAGTTGAGAGATGCCA
chain 2: CCCTCTTTTTGAGGGTGGCATCTCTCAACTAGGTCATTTACAATCTTGTCATATTAC
modifications: dumbbell structure, further chemistry not given here
- effect on growth of EMRSA-16 in vitro (EMRSA-16): no detectable effect on bacterial growth
- Kruskal-Wallis all pairwise comparisons (Dwass-Steel-Chritchlow-Fligner) of kidney burden, versus 1 nM WalR_TFD [1, 3]: 0.0043
- Kruskal-Wallis all pairwise comparisons (Dwass-Steel-Chritchlow-Fligner) of kidney burden, versus Vancomycin [1, 3]: 0.0062
- Kruskal-Wallis all pairwise comparisons (Dwass-Steel-Chritchlow-Fligner) of kidney burden, versus Vehicle [1, 3]: 0.7804
- inhibition of bacterial growth of EMRSA15 (EMRSA15): no effect

B2: WalR_TFD: dumbbell TFD containing the binding site for the WalR protein as in the lytM promoter, SEQ ID NOs: 48 & 49 (nucleic acid, listed as Staphylococcus aureus)
chain 1: CTTGGTTTTTCCAAGTAATGAATGAGTTTAAAGCCCATGTAAAAGGGGTATCAGTAC
chain 2: CCCTCTTTTTGAGGGGTACTGATACCCCTTTTACATGGGCTTTAAACTCATTCATTA
modifications: dumbbell structure, further chemistry not given here
- effect on growth of EMRSA-16 in vitro (EMRSA-16): prevented growth of EMRSA-16
- growth after limited contact (EMRSA-16; 1 nM, incubated 30 minutes then diluted into fresh media without TFD or Lysostaphin, followed 48 hours): unable to grow; also recorded: no growth was observed
- total viable counts, reduction in number of living cells (EMRSA-16; after in vitro growth experiment): reduced the number of living cells by five-fold orders of magnitude
- bacteriocidal activity against MRSA (EMRSA-16; in vitro and in vivo): rapid bacteriocidal activity at nanomolar concentrations
- development of resistance to TFD-mediated killing (EMRSA-16; surviving bacteria sub-cultured and re-treated, repeated rounds): No resistance mechanism has been detected; also recorded: no evidence for the development of a resistance mechanism
- reduction in kidney burden of EMRSA-16 ([1]; mice, systemic injection 1, 9 and 17 hours post infection, 1 nM TFD complex, compared to Scr_TFD control): as effective as vancomycin in killing EMRSA-16
- Kruskal-Wallis all pairwise comparisons (Dwass-Steel-Chritchlow-Fligner) of kidney burden, versus Vancomycin [1, 3]: 0.2549
- Kruskal-Wallis all pairwise comparisons (Dwass-Steel-Chritchlow-Fligner) of kidney burden, versus Vehicle [1, 3]: 0.0062
- inhibition of bacterial growth of EMRSA15 (EMRSA15): prevents growth of EMRSA15

B3: SA3 TFD: Sig dumbbell TFD from phosphorylated oligonucleotides SEQ ID NOs: 40 & 41 (nucleic acid, listed as Staphylococcus aureus)
chain 1: CTTGGTTTTTCCAAGGAAGATTAGAAATTATTTCGATGGGTATATAATA
chain 2: CCGTCTTTTTGACGGTATTATATACCCATCGAAATAATTTCTAATCTTC
modifications: 5' {P}, sugars by position and backbone not given here; further chemistry not fully specified
- inhibition of bacterial growth of EMRSA15 (EMRSA15): capable of inhibiting bacterial growth
- inhibition of cell growth of clinically-isolated MRSA strain [2]: repress the growth
